Bridges are numbered along the chain shown (N, C = ends). Where no end group is shown, it is not given here.

The source of these data is patent US20210330736A1 (UNIVERSITEIT VAN AMSTERDAM, priority 2018, published 2021).

For test [1], the system named is PDE7. Particulars: cited from earlier work.
Test [2] addresses GUCY2C (Homo sapiens, UniProt P25092). The test can be described thus: Th Ser40 phosphorylation in HEK cells co-transfected with Th and GUCY2C (western blot). The class given is cell-based. The arrangement: expressed in transfected cells; host or cells: HEK cells (ATCC), calcium-phosphate transfection, co-transfected with mouse Th. To be noted: guanylin 10 μM, uroguanylin 1 μM, IBMX 100 μM, 1 hour. As for the experimental part:
FIG. 4. GUCY2C activation increases Ser40 phosphorylation. Immunocytochemistry images (A) and western blotting analysis (B) of HEK cultures transfected with Th or Th+GUCY2C. (C) Co-transfected HEK cells were treated with guanylin (G) or uroguanylin (UroG) and changes in Ser40 phosphorylation were studied. The graph represents the statistical analysis (n=3 for Control, n=6 for Guanylin, n=9 for Uroguanylin; Mean±SEM). Unpaired Student's t-test (p-value: **<0.01).
FIG. 5. […] (A) HEK cultures were treated with guanylin, in the presence or absence of IBMX. […] Unpaired Student's t-test (p-values: ****<0.0001, **<0.01, *<0.05). (B) HEK cells were co-transfected with Th and either the wt GUCY2C or a gain-of-function mutant (R792S). Ser40 phosphorylation was studied following guanylin treatment (G). […] Unpaired Student's t-test (p-values: ***<0.001, **<0.01).
HEK cells were maintained in 100-mm Petri dishes and grown in DMEM medium supplemented with L-glutamine, penicillin-streptomycin (Pen&Strep) and 10% heat-inactivated fetal bovine serum (HIFBS). Growing conditions were 37° C. and 5% CO2. For every-other-day passages, HEK cultures were split at a 1:3 dilution. From Friday to Monday, the split proportion was doubled for all cell lines. For passaging, cultures were rinsed with PBS and incubated with 1 mL of trypsin during 5 minutes. Cells were resuspended in growth medium and finally split to the proper dilution. The experiments were performed in 12-well plates. For immunocytochemistry analysis, sterile 18-mm coverslips were added prior to the plating. 500 !μL of cell resuspension was seeded in each well. If experiments were to be performed 48 hours after the plate preparation, 1:5 was the seeding ratio for HEK cells. When the experiments took place 96 hours post-plating, 1:7 was the working dilution for HEK cells. Unless otherwise stated, HEK cultures were processed 96 hours post-plating.
HEK cells were transfected using the calcium-phosphate method. 12-well plates were refreshed with 500 μL of growth medium before transfection. […]
On the technique in general: In western blotting, separated proteins are transferred to a membrane and probed.

Test [3] has as its target GUCY2C R792S gain-of-function mutant (human) (UniProt P25092).
For test [4], the target named is mouse GUCY2C (endogenous, in mouse striatal slices) (mouse, UniProt Q3UWA6). The test can be described thus: cell-based or functional assay.

Chain of GUCY2C (P25092 24-1073): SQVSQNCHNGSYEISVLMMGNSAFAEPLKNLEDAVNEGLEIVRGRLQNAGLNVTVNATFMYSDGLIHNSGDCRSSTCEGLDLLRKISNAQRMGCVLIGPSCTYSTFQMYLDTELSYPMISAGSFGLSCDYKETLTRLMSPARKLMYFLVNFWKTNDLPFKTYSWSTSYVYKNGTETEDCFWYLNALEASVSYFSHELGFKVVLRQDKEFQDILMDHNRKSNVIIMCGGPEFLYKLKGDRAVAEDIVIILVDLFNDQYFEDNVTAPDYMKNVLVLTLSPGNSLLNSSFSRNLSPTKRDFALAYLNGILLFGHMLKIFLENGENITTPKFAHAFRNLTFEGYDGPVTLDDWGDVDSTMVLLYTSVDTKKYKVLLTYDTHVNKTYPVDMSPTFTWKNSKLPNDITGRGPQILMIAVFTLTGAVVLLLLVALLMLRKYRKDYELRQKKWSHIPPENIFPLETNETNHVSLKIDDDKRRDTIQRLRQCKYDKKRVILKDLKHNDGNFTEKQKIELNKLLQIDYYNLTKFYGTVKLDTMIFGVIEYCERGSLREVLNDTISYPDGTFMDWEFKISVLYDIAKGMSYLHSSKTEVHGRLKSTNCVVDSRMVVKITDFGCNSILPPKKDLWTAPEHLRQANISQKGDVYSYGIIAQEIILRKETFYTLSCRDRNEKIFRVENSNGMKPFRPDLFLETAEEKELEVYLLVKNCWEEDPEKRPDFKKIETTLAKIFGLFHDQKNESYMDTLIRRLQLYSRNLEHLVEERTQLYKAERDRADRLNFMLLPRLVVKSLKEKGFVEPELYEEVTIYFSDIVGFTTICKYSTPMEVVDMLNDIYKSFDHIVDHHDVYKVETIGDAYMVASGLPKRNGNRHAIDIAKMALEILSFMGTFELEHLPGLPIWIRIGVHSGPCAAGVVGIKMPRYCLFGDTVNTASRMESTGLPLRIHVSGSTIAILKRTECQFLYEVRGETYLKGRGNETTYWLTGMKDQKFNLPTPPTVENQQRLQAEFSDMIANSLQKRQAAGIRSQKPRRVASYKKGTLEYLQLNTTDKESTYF

The IC50 is the concentration at which inhibition is half-maximal. Consider `OCCN(CCO)c1nc(N2CCCCC2)c2nc(N(CCO)CCO)nc(N3CCCCC3)c2n1` [Dipyridamole], for which the IC50 in test [1] was 600 nM. As to `CC(C)Cn1c(=O)n(C)c(=O)c2[nH]cnc21` [IBMX, 3-isobutyl-1-methylxanthine], the “P-Ser40 levels / Ser40 phosphorylation (in words)” value in test [2] is recorded as “potentiated the increase in Ser40 phosphorylation”. As for guanylin (Example 1) (ligand), the Ser40 phosphorylation of Th upon guanylin treatment (western blot) (fold higher than with the wt receptor) in test [3] was 1.5. As to “uroguanylin: natural agonistic ligand of GUCY2C, 16 amino acid peptide (NDDCELCVNVACTGCL; disulfide 4-12, 7-15; UniProt Q16661 97-112, looked up)”, in test [2], the “P-Ser40 levels / Ser40 phosphorylation (in words)” value is listed as “increase P-Ser40 levels”.

B1: peptide 1 (peptide)
peptide: H-NDDCELCVNVACTGCL-OH
modifications: disulfide 4-12, 7-15
SMILES: CC(C)C[C@H](NC(=O)[C@@H]1CSSC[C@@H]2NC(=O)[C@H](CC(C)C)NC(=O)[C@H](CCC(=O)O)NC(=O)[C@@H](NC(=O)[C@H](CC(=O)O)NC(=O)[C@H](CC(=O)O)NC(=O)[C@@H](N)CC(N)=O)CSSC[C@H](NC(=O)[C@H](C)NC(=O)[C@H](C(C)C)NC(=O)[C@H](CC(N)=O)NC(=O)[C@H](C(C)C)NC2=O)C(=O)N[C@@H]([C@@H](C)O)C(=O)NCC(=O)N1)C(=O)O
With B1, the “P-S40 TH/TTH, fold change (average), mouse striatal slices, 10 µM, 1 h (WES)” value in test [4] was 1.11 fold change (average).

B2: peptide 3 (peptide)
peptide: H-NDDCELCVNVACTGC-OH
modifications: disulfide 4-12, 7-15
SMILES: CC(C)C[C@@H]1NC(=O)[C@H](CCC(=O)O)NC(=O)[C@@H](NC(=O)[C@H](CC(=O)O)NC(=O)[C@H](CC(=O)O)NC(=O)[C@@H](N)CC(N)=O)CSSC[C@@H]2NC(=O)[C@H](C)NC(=O)[C@H](C(C)C)NC(=O)[C@H](CC(N)=O)NC(=O)[C@H](C(C)C)NC(=O)[C@H](CSSC[C@@H](C(=O)O)NC(=O)CNC(=O)[C@H]([C@@H](C)O)NC2=O)NC1=O
In the case of B2, the “P-S40 TH/TTH, fold change (average), mouse striatal slices, 10 µM, 1 h (WES)” value in test [4] was 1.2 fold change (average).
